Measurements from US20160185837A1 (Medimmune Limited, priority 2013, published 2016).

Key:
Assay type in all cases: cell-based
[1] = target: T1, human GLP-1 receptor (hGLP-1r) (Homo sapiens, UniProt P43220); assay: BSA-cAMP assay, cells expressing human GLP-1 receptor; details: Batch 1; BSA-cAMP assay; read-out: hGLP1r cAMP activity EC50
T1 construct: expressed in transfected cells
Protocol: (§1) One basic cAMP assays was performed, differing in the medium used for the assay, the “BSA-cAMP assay”:
(§2) BSA-based assay medium: 0.1% bovine serum albumin (BSA) in
(§3) In certain aspects, the assay can also be carried out in medium supplemented with serum albumin that corresponds to the receptor being tested, e.g., human serum albumin for testing cAMP activity at hGIPr or hGLP-1r, rat serum albumin for testing cAMP activity at rGIPr or rGLP-1r, and so on. […] All sample dilutions were made in duplicate.
(§4) A frozen cryo-vial of cells expressing the receptor of interest was thawed rapidly in a water-bath, transferred to pre-warmed assay media and spun at 240×g for 5 minutes. Cells were re-suspended in assay buffer at an optimized concentration (e.g., hGLP-1r and hGIPr cells at 0.5×10^5 cells/ml).
(§5) To this, 5 μL cell suspension was added and the plates incubated at room temperature for 30 minutes.
(§6) cAMP levels were measured using a commercially available cAMP dynamic 2 HTRF kit (Cisbio, Cat #62AM4PEJ), following the two step protocol as per manufacturer's recommendations. In brief; anti-cAMP cryptate (donor fluorophore) and cAMP-d2 (acceptor fluorophore) were made up separately by diluting each 1/20 in conjugate & lysis buffer provided in the kit. 5 μL anti-cAMP cryptate was added to all wells of the assay plate, and 5 μL cAMP-d2 added to all wells except non-specific binding (NSB) wells, to which conjugate and lysis buffer was added. […] Data was transformed to % Delta F as described in manufacturer's guidelines and then transformed to percent activation of maximal native agonist response and analysed by 4-parameter logistic fit to determine EC50 values.
(§7) We used unconstrained 4 parameter logistic fit of data, curve mid-point to determine EC50. This was tested on two occasions, not two batches.

[2] = target: T2, human GIP receptor (hGIPr) (Homo sapiens, UniProt P48546); assay: BSA-cAMP assay, cells expressing human GIP receptor; details: Batch 1; BSA-cAMP assay; read-out: hGIPr cAMP activity EC50
T2 construct: expressed in transfected cells
T2 sequence (P48546 22-466): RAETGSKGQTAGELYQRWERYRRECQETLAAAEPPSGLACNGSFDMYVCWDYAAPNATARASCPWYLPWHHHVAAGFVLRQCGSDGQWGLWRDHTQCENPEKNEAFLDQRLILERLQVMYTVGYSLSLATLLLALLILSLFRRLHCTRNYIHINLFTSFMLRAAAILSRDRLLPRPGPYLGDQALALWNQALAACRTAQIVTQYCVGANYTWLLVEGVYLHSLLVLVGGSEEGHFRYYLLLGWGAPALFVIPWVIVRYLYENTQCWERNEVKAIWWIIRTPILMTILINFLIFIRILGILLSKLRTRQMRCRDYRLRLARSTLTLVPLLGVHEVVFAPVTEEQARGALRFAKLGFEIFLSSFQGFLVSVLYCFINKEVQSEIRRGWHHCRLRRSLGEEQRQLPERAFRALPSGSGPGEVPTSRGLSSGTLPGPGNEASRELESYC
Protocol: For human GIPr, two different lines were used, shown as “hGIPr” and “hGIPr (C3)” in Table 11.
as §1, §2, §3, §4, §5, §6, §7

[3] = target: T3, human glucagon receptor (GCGr) (Homo sapiens, UniProt P47871); assay: BSA-cAMP assay, cells expressing human glucagon receptor; details: Batch 1, read-out: hGCGr cAMP activity EC50
T3 construct: expressed in transfected cells; host or cells: HEK293s or CHO cells
T3 sequence (P47871 26-477): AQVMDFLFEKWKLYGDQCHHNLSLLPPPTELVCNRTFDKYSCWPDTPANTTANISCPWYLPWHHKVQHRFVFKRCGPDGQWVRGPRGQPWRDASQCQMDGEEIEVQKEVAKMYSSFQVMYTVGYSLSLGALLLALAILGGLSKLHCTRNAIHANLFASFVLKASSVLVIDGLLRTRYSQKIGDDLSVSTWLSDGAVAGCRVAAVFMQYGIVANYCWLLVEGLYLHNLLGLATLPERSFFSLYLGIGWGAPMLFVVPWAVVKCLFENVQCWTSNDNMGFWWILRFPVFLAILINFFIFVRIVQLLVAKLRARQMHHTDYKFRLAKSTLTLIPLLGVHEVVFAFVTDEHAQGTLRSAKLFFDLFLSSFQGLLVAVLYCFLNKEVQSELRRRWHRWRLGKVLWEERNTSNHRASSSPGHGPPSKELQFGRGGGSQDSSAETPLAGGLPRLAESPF
Protocol: as §1, §2, §3, §4, §5, §6, §7

[4] = target: T4, mouse GLP-1 receptor (mGLP-1r) (Mus musculus, UniProt O35659); assay: BSA-cAMP assay, cells expressing mouse GLP-1 receptor; details: Batch 1; BSA-cAMP assay; read-out: mGLP1r cAMP activity EC50
T4 construct: expressed in transfected cells; host or cells: HEK293s or CHO cells
T4 sequence (O35659 22-463): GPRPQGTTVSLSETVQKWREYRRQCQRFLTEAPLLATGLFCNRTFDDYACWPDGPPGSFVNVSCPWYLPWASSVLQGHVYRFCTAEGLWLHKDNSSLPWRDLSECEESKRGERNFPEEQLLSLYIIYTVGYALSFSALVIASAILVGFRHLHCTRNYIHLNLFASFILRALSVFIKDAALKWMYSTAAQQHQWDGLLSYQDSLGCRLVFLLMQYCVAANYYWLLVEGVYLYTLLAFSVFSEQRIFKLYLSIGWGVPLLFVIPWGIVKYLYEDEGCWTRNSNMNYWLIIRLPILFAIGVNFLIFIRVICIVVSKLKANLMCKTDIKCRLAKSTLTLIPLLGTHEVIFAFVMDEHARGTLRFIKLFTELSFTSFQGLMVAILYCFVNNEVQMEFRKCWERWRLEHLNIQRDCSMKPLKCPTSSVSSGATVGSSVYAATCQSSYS
Protocol: as §1, §2, §3, §4, §5, §6, §7
(§8) In order to be able to carry out in vivo studies in rodents, IP088 was tested for potency against the mouse receptors mGIPr and mGLP-1r as well as the rat receptors rGIPr and rGLP-1r, using cells expressing the respective receptors in the cAMP assay described above.

[5] = target: T5, mouse GIP receptor (mGIPr) (Mus musculus, UniProt Q0P543); assay: BSA-cAMP assay, cells expressing mouse GIP receptor; details: Batch 1; BSA-cAMP assay; read-out: mGIPr cAMP activity EC50
T5 construct: expressed in transfected cells; host or cells: HEK293s or CHO cells
T5 sequence (Q0P543 19-460): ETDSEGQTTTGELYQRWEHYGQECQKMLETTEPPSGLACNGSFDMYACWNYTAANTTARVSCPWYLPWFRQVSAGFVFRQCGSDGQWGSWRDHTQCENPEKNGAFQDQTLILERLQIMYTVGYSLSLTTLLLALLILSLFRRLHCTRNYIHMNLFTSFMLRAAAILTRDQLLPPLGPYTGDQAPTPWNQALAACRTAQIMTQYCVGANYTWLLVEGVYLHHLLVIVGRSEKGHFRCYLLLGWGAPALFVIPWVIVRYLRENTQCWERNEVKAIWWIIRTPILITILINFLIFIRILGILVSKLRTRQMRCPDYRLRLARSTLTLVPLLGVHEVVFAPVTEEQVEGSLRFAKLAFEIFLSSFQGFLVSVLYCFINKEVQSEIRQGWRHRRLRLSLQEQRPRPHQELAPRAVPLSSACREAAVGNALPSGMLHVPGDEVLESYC
Protocol: as §1, §2, §3, §4, §5, §6, §7, §8

[6] = target: T6, rat GLP-1 receptor (rGLP-1r) (Rattus norvegicus, UniProt P32301); assay: BSA-cAMP assay, cells expressing rat GLP-1 receptor; details: Batch 1; BSA-cAMP assay; read-out: rGLP1r cAMP activity EC50
T6 construct: expressed in transfected cells; host or cells: HEK293s or CHO cells
T6 sequence (P32301 22-463): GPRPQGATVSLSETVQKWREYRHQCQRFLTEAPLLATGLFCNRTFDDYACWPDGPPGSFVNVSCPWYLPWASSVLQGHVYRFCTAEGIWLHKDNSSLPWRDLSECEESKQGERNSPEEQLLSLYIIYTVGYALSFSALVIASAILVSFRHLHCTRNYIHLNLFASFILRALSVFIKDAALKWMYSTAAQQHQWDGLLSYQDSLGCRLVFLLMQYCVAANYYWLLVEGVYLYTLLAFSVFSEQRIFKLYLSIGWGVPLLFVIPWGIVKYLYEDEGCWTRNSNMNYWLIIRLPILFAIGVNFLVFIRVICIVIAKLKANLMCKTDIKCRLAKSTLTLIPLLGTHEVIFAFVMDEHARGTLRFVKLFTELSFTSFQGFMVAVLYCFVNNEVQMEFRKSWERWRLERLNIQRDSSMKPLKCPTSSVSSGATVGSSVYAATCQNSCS
Protocol: as §1, §2, §3, §4, §5, §6, §7, §8

rat GIP receptor (rGIPr) = target: T7, rat GIP receptor (rGIPr) (Rattus norvegicus, UniProt P43219); assay: BSA-cAMP assay, cells expressing rat GIP receptor; details: Batch 1; BSA-cAMP assay; read-out: rGIPr cAMP activity EC50
T7 construct: expressed in transfected cells; host or cells: HEK293s or CHO cells
T7 sequence (P43219 19-455): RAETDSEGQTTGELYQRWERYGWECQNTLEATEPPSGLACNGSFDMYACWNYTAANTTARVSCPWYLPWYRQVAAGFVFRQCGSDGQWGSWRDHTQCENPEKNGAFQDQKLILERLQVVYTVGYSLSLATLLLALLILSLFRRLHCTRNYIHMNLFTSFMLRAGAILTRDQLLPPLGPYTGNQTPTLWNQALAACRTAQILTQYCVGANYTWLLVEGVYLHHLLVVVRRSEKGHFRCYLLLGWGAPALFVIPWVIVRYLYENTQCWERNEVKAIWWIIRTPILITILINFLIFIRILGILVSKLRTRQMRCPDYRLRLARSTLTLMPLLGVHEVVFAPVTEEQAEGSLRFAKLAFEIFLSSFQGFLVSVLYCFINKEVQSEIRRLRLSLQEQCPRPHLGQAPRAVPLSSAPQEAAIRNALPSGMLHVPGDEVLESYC
Protocol: as §1, §2, §3, §4, §5, §6, §7, §8

T1 sequence (P43220 24-463): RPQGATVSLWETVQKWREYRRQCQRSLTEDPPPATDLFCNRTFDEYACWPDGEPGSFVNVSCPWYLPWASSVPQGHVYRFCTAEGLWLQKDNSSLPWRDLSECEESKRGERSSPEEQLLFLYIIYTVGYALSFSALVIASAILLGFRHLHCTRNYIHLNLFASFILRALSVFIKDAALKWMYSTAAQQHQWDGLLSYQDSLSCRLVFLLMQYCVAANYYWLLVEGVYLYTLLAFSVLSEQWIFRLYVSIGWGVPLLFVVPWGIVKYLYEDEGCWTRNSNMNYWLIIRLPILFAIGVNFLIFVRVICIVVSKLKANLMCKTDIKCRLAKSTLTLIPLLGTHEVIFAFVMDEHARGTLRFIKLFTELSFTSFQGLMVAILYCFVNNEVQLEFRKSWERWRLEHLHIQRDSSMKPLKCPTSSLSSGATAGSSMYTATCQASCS

Row | Substance | EC50 [1] | EC50 [2] | EC50 [3] | EC50 [4] | EC50 [5] | EC50 [6] | EC50 (rat GIP receptor (rGIPr))
1 | IP299: Fc fusion, IgG1-TM(ΔK), SEQ ID NO:351; agonist peptide YSEGTFISDYSKLLEEEAVRDFVEWLKAGG (YSEGTFISDYSKLLEEEAVRDFVEWLKAGGGGGGGSGGGGSGGGGSGGGGSATHTCPPC) | > 3640 nM | 0.021 nM | 53 nM | > 3640 nM | 210 nM | 19 nM | 0.11 nM
2 | IP302 (YSEGTFISDYSIALAAAAQQDFVNWLLAGGGGGGGSGGGGSGGGGSGGGGSATHTCPPC) | 26 nM | 0.018 nM | 1200 nM | 93 nM | 0.083 nM | 7 nM | 0.055 nM
3 | IP305: Fc fusion, IgG1-TM(ΔK), SEQ ID NO:430; agonist peptide YSEGTFISDYSIALAAAAVRDFVNWLLAGG (YSEGTFISDYSIALAAAAVRDFVNWLLAGGGGGGGSGGGGSGGGGSGGGGSATHTCPPC) | 230 nM | 0.26 nM | ≥ 1100 nM | > 1130 nM | 3.2 nM | 47 nM | 1.7 nM
4 | IP308 (YSEGTFISDYSIALAAAAAKDFVNWLLAGGGGGGGSGGGGSGGGGSGGGGSATHTCPPC) | 1300 nM | 0.025 nM | ≥ 1500 nM | > 1520 nM | 0.17 nM | 700 nM | 0.09 nM
5 | IP311 (YSEGTFISDYSIALAAAAIDDFVNWLLAGGGGGGGSGGGGSGGGGSGGGGSATHTCPPC) | 670 nM | 0.074 nM | > 2420 nM | 1500 nM | 0.95 nM | 61 nM | 0.43 nM
6 | IP314: Fc fusion, IgG1-TM(ΔK), SEQ ID NO:431; agonist peptide YSEGTFISDYSKLLAAAAVRDFVNWLLAGG (YSEGTFISDYSKLLAAAAVRDFVNWLLAGGGGGGGSGGGGSGGGGSGGGGSATHTCPPC) | > 906 nM | 0.23 nM | 740 nM | > 906 nM | 15 nM | 450 nM | 0.88 nM
7 | IP318: Fc fusion, IgG1-TM(ΔK), SEQ ID NO:432; agonist peptide YSEGTFISDYSIAMDEEAVRDFVEWLKAGG (YSEGTFISDYSIAMDEEAVRDFVEWLKAGGGGGGGSGGGGSGGGGSGGGGSATHTCPPC) | ≥ 4500 nM | 0.05 nM | ≥ 4500 nM | > 4470 nM | 35 nM | > 4470 nM | 14 nM
8 | IP335 (YSEGTFISDYSIAMDKIHQQDFVNWLLAQKGGGGGSGGGGSGGGGSGGGGSA) | > 5480 nM | 0.0058 nM | 280 nM | > 2740 nM | 0.02 nM | > 2740 nM | 0.0067 nM
9 | IP342 (YSEGTFTSDYSAAAEAAAAAAFAAWLAAAAGGGGGSGGGGSGGGGSGGGGSACPPC) | 75 nM | 4.7 nM | > 3560 nM | 670 nM | 43 nM | 23 nM | 5.1 nM
10 | IP343 (YSEGTFTSDYAAAAERQAIDAFAAWLAAAAGGGGGSGGGGSGGGGSGGGGSA) | 960 nM | 72 nM | > 2070 nM | > 2070 nM | 880 nM | 360 nM | 110 nM
